According to paper PMC4599002, “The Potato Nucleotide-binding Leucine-rich Repeat (NLR) Immune Receptor Rx1 Is a Pathogen-dependent DNA-deforming Protein” (The Journal of Biological Chemistry, 2015):
Positions count from the first letter of the chain named.

Columns and labels:
Rx1(1–489)WT = biological target: T1, Rx1(1–489)WT (Solanum tuberosum, UniProt Q9XGF5); assay: time-resolved FRET of DNA bending; format: biochemical; settings: 20-bp end-labelled dsDNA (50 nM), 1.5 uM protein, 60 mM NaCl, room temperature; activator of DNA bending, P-loop dependent
T1 construct: gene rx; CC-NB-ARC region, residues 1-489, LRR domain absent; pET32c, hexahistidine tag
T1 sequence (Q9XGF5 1-489): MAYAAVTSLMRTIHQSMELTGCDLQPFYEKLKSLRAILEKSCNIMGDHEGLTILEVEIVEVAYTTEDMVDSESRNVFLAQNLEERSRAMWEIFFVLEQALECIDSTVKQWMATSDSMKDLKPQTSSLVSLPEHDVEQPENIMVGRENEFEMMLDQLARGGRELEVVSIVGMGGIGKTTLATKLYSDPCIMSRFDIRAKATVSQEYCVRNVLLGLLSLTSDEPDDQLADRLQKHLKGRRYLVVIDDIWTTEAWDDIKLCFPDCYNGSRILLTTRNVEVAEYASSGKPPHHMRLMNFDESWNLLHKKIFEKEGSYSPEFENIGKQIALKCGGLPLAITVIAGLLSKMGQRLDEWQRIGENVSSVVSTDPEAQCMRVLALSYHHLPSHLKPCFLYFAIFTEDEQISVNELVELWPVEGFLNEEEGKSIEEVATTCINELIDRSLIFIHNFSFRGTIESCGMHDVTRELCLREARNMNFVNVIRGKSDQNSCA

[1] = biological target: T2, Rx1(1-489) WT (CC-NB-ARC) (potato (introgressed from Solanum …, UniProt Q9XGF5 1-489)); assay: EMSA; apparent Kd in Table 1 (values not in material); text: submicromolar; EMSA: 0.15 nM 32P nucleic acid, 20 mM Tris-HCl pH 8.0, 60 mM NaCl, 2 mM EDTA, 1 mM DTT, 10% glycerol, 0.1 mg/ml BSA, 20 min on ice; FRET: 1.5 uM protein, 50 nM; settings: protein: recombinant; tags: His6 (pET32c); label: 32P 5' end; blunt
T2 sequence: T1 sequence (Q9XGF5 1-489)

[2] = biological target: T2, Rx1(1-489) WT (CC-NB-ARC); assay: EMSA; affinity similar to dsDNA; Kd in Table 1 not in material; EMSA: 0.15 nM 32P nucleic acid, 20 mM Tris-HCl pH 8.0, 60 mM NaCl, 2 mM EDTA, 1 mM DTT, 10% glycerol, 0.1 mg/ml BSA, 20 min on ice; FRET: 1.5 uM protein, 50 nM; settings: protein: recombinant; tags: His6 (pET32c); label: 32P 5' end; single strand
[3] = biological target: T2, Rx1(1-489) WT (CC-NB-ARC); assay: time-resolved FRET (bending); no nucleotide; bend angle 42 degrees; EMSA: 0.15 nM 32P nucleic acid, 20 mM Tris-HCl pH 8.0, 60 mM NaCl, 2 mM EDTA, 1 mM DTT, 10% glycerol, 0.1 mg/ml BSA, 20 min on ice; FRET: 1.5 uM protein, 50 nM; settings: protein: recombinant; tags: His6 (pET32c); label: fluorescein donor and tetramethylrhodamine acceptor, end labels; blunt
Rx1(1-489) K176R = biological target: T3, Rx1(1-489) K176R (potato (introgressed from Solanum …, UniProt Q9XGF5 1-489, K176R)); assay: time-resolved FRET (bending); no nucleotide; bends similarly to WT; EMSA: 0.15 nM 32P nucleic acid, 20 mM Tris-HCl pH 8.0, 60 mM NaCl, 2 mM EDTA, 1 mM DTT, 10% glycerol, 0.1 mg/ml BSA, 20 min on ice; FRET: 1.5 uM protein, 50 nM; settings: protein: recombinant; tags: His6 (pET32c); label: fluorescein donor and tetramethylrhodamine acceptor, end labels; blunt
T3 sequence: T1 sequence (Q9XGF5 1-489) with K176R

[4] = biological target: T2, Rx1(1-489) WT (CC-NB-ARC); assay: EMSA; higher affinity than dsDNA or ssRNA; Kd in Table 1 not in material; EMSA: 0.15 nM 32P nucleic acid, 20 mM Tris-HCl pH 8.0, 60 mM NaCl, 2 mM EDTA, 1 mM DTT, 10% glycerol, 0.1 mg/ml BSA, 20 min on ice; FRET: 1.5 uM protein, 50 nM; settings: protein: recombinant; tags: His6 (pET32c); label: 32P 5' end; single strand
[5] = biological target: T2, Rx1(1-489) WT (CC-NB-ARC); assay: P1 nuclease sensitivity; no nucleotide; local melting; EMSA: 0.15 nM 32P nucleic acid, 20 mM Tris-HCl pH 8.0, 60 mM NaCl, 2 mM EDTA, 1 mM DTT, 10% glycerol, 0.1 mg/ml BSA, 20 min on ice; FRET: 1.5 uM protein, 50 nM; settings: protein: recombinant; tags: His6 (pET32c); label: 32P 5' end of strand 1; blunt
Orc1-1;Orc1-3 = biological target: T4, Orc1-1;Orc1-3 (Sulfolobus solfataricus;Sulfolobus …, UniProt Q980N4;Q97WM8 1-397;1-394, |); assay: P1 nuclease sensitivity; sensitivity indistinguishable from Rx1(1-489)WT; EMSA: 0.15 nM 32P nucleic acid, 20 mM Tris-HCl pH 8.0, 60 mM NaCl, 2 mM EDTA, 1 mM DTT, 10% glycerol, 0.1 mg/ml BSA, 20 min on ice; FRET: 1.5 uM protein, 50 nM; settings: protein: recombinant;recombinant; tags: ;; copies: 1;1; label: 32P 5' end of strand 1; blunt
T4 sequence 1: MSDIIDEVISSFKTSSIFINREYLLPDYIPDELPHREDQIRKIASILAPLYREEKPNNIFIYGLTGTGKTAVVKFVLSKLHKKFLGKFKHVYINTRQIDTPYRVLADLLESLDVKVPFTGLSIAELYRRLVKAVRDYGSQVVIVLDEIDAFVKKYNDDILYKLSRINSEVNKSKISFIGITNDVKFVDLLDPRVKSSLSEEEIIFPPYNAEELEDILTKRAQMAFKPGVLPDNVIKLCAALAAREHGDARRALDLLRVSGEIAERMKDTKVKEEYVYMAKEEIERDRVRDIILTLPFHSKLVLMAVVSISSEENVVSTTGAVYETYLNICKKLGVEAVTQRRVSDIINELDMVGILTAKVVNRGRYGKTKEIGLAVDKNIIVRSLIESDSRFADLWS
T4 sequence 2: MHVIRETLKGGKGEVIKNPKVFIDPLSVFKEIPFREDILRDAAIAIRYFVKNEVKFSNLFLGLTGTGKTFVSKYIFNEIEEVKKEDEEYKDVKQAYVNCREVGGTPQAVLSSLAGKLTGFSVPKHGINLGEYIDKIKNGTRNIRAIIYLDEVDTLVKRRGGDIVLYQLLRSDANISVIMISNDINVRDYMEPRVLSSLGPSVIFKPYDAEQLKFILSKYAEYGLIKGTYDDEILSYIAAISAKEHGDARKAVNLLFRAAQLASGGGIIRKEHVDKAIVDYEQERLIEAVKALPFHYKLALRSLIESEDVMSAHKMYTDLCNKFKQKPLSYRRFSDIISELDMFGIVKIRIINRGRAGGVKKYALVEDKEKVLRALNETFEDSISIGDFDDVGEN

[6] = biological target: T2, Rx1(1-489) WT (CC-NB-ARC); assay: EMSA; higher affinity than F12-ds/ss; EMSA: 0.15 nM 32P nucleic acid, 20 mM Tris-HCl pH 8.0, 60 mM NaCl, 2 mM EDTA, 1 mM DTT, 10% glycerol, 0.1 mg/ml BSA, 20 min on ice; FRET: 1.5 uM protein, 50 nM; settings: protein: recombinant; tags: His6 (pET32c); label: 32P 5' end of strand 1; fork 1:2, two single-stranded arms

Nc1ncnc2c1ncn2[C@@H]1O[C@H](COP(=O)(O)OP(=O)(O)OP(=O)(O)O)[C@@H](O)[C@H]1O [ATP]
time-resolved FRET of DNA bending (Rx1(1–489)WT): Notably ATP, but not ADP, strongly increased the contribution of the 129-ps lifetime

B1: SS1/SS2 dsDNA (dsDNA)
DNA 1: TGGGTCAACGTGGGCAAAGATGTCCTAGCAATGTAATCGTCTATGACGTT
DNA 2: AACGTCATAGACGATTACATTGCTAGGACATCTTTGCCCACGTTGACCCA
binding result [1]: binds

UGGGUCAACGUGGGCAAAGAUGUCCUAGCAAUGUAAUCGUCUAUGACGUU (ssRNA) [SS1 ssRNA]
binding result [2]: binds

B2: 20-bp FRET duplex (dsDNA)
DNA 1: TGGGTCAACGTGGGCAAAGA
DNA 2: TCTTTGCCCACGTTGACCCA
binding result [3]: binds
binding result (Rx1(1-489) K176R): binds

TGGGTCAACGTGGGCAAAGATGTCCTAGCAATGTAATCGTCTATGACGTT (ssDNA) [SS1 ssDNA]
binding result [4]: binds

B3: C3/mORB dual site of oriC2 (dsDNA)
DNA 1: CTCAATACAATTGTCTCTGTGTAAATTTCCTACGTTTCATCTGAAAATCTAGCTATTAGAGCTTGGTTTA
DNA 2: TAAACCAAGCTCTAATAGCTAGATTTTCAGATGAAACGTAGGAAATTTACACAGAGACAATTGTATTGAG
binding result [5]: binds
binding result (Orc1-1;Orc1-3): binds

B4: F12-ss/ss (structured_DNA)
DNA 1: GACGCTGCCGAATTCTGGCTTGCTAGGACATCTTTGCCCACGTTGACCC
DNA 2: B1 DNA 1
binding result [6]: binds
